Data set [1] concerns the molecule itself. As to the kind of experiment: SEC-MALS; Superose 6 10/300 GL, 20 mM Tris pH 7.5, 100 mM NaCl, 1 mM DTT.
Data set [2] concerns the molecule itself. Put plainly: ITC; titration of the protein into buffer (dilution); dimer to monomers; 20 mM HEPES pH 7.5, 100 mM NaCl, 0.25 mM TCEP. (In ITC the heat of successive injections is recorded.)

B1: BICD2_(1–98) (domain or fragment, human, UniProt Q8TD16-1 1-98, looked up)
chain: MSAPSEEEEYARLVMEAQPEWLRAEVKRLSHELAETTREKIQAAEYGLAVLEEKHQLKLQFEELEVDYEAIRSEMEQLKEAFGQAHTNHKKVAADGES
notes: human BICD2, UniProt Q8TD16-1, residues 1-98 (includes the CC1-Box); Purified 'as described above' (pMAL-c2x); source: E. coli BL21 (DE3), purified (amylose column, TEV cleavage, gel filtration)
Turning to B1, the stoichiometry N (in general, the number of molecules, sites or subunits per partner or assembly) in data set [1] was 2.

B2: Hook1_(11–238) (domain or fragment, human, UniProt Q9UJC3-1 11-238, looked up)
chain: KLPLCDSLMIWLQTFNTASPCQDVKQLTSGVAMAQVLHQIDAAWFNESWLSRIKEDVGDNWRIKASNVKKVLQGIMSYYHEFLGQQISEALIPDLNQITECSDPVELGRLLQLILGCAINCEKKQEHIQNIMTLEESVQHVVMTAIQELMSKEILSSPPNDAVGELEQQLKRALEELQEALAEKEELRQRCEELDMQVTTLQDEKNSLVSENEMMNEKLDQLDGSFDD
notes: human Hook1, UniProt Q9UJC3-1, residues 11-238 (Hook domain and CC1 region); In equilibrium between dimers and monomers; source: E. coli BL21 (DE3), purified (amylose column, TEV cleavage, gel filtration)
With B2, the Kd (in general, a measure of binding affinity in units of concentration) in data set [2] turned out to be 2100 nM.

B3: Spindly_(1–142) (domain or fragment, human, UniProt Q96EA4-1 1-142, looked up)
chain: MEADIITNLRCRLKEAEEERLKAAQYGLQLVESQNELQNQLDKCRNEMMTMTESYEQEKYTLQREVELKSRMLESLSCECEAIKQQQKMHLEKLEEQLSRSHGQEVNELKTKIEKLKVELDEARLSEKQLKHQVDHQKELLS
notes: human Spindly, UniProt Q96EA4-1, residues 1-142 (includes the CC1-Box); Cloned in pCold1; source: E. coli BL21 (DE3), purified (Ni-NTA, TEV cleavage, Superdex 75)
On to B3, for which the “stoichiometry N” value in data set [1] came to 2.

B4: Hook1_(11–443) (domain or fragment, human, UniProt Q9UJC3-1 11-443, looked up)
chain: KLPLCDSLMIWLQTFNTASPCQDVKQLTSGVAMAQVLHQIDAAWFNESWLSRIKEDVGDNWRIKASNVKKVLQGIMSYYHEFLGQQISEALIPDLNQITECSDPVELGRLLQLILGCAINCEKKQEHIQNIMTLEESVQHVVMTAIQELMSKEILSSPPNDAVGELEQQLKRALEELQEALAEKEELRQRCEELDMQVTTLQDEKNSLVSENEMMNEKLDQLDGSFDDPNTVVAKKYFHAQLQLEQLQEENFRLEAAKDDYRVHCEELEKQLIEFQHRNDELTSLAEETRALKDEIDVLRATSDKANKLESTVEIYRQKLQDLNDLRKQVKTLQETNMMYMHNTVSLEEELKKANAARTQLETYKRQVQDLHVKLSSESKRADTLAFEMKRLEEKHEALLKEKERLIEQRDTLKETNEELRCSQVQQDHLNQT
notes: human Hook1, UniProt Q9UJC3-1, residues 11-443 (extends to the end of CC2); Dimeric by SEC-MALS; source: E. coli BL21 (DE3), purified (amylose column, TEV cleavage, gel filtration)
Take B4: the “stoichiometry N” value in data set [1] amounted to 2.

The record behind these values is paper PMC5841405 (Nature Communications, 2018).
